Measurements: the RNAGym collection of RNA variant scans (doi:10.1073/pnas.2313332121)

B1: TPR t1 (parent)
chain: GACCAAUCUGCCCUCAGAGCUCGAGAACAUCUUCGGAUGCAGAGGAGGCAGGCUUCGGUGGCGCGAUAGCGCCAACGUCCUCAACCUCCAAUGCAUCCCACCACAUGAUGAUGCCUGAAGAGCCUUGGUUUUUUG

Variants of: B1
Assay: polymerase ribozyme fitness, log enrichment relative to wild type (log ratio); higher = more active; in vitro selection for triplet polymerase activity
Outline: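 In triplicate, a single round of in vitro selection was run on each mutant library, PCR-built and transcribed, covering one subunit of a heterodimeric triplet polymerase ribozyme. Frozen incubation at −7 °C followed annealing with a biotinylated primer, partner subunit and triplets, and extended constructs were then gel-excised, streptavidin-captured and taken through RT-PCR. Fitness is the logarithm of genotype enrichment over wild-type enrichment, from inverse-variance-weighted replicate averages of Illumina-sequenced inputs and outputs. […] only genotypes with ≥10 input reads and ≥1 read per output were kept.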

Point of comparison: G25C G47A A103U C115G, “polymerase ribozyme fitness (log ratio)” value -7.4. Against it:
- A26C G69U G120U — higher, -2.51
- G23U C73A — higher, -6.12
- A26G G65A — higher, -5.09
- G23U U112G — higher, -5.53
- A26G C72U — higher, -2.13
- A24G A50C G63U A118U G122A — within 0.2 log units, -7.26
- A24G C73U U87C — higher, -1.49
- A24G G48A G93A C97U A111G — higher, -3.16
- G23U C72U — higher, -6.65
- A24U — higher, -5.7
- A24G — higher, -1.19
- A24C — higher, -6.63
- G25U C94U C101U G113A C124A — higher, -7.17
- A26U C53A G61C U78A G110A — higher, -5.96
- G23U A26C A43U G93A G117C — higher, -7.04
- G25C G69U A111U — higher, -7
- G25C G61C U96C C98A U112G C123U — higher, -6.63
- A24G G52A A91G — higher, -3.17
- A26U A37C — higher, -2.35
- A26U A37G — higher, -2.5
- G23A — higher, -4.43
- G23C — higher, -6.4
- G23U — higher, -6.05
- A24G C88A C115A — higher, -1.84
- A26C G35C G39U A90C G117U — within 0.2 log units, -7.41
- A24G C56A G60U A83C — higher, -2.27
- A24G G71A G127U — higher, -5.42
- A26U A50C G58A — higher, -4.45
- A26C G47C C88A C102G A105C C123A — lower, -7.85
- C22U U55G C72A U106A — higher, -3.49
- A26G C34A G44A C124U — higher, -3.54
- A26C C49A C98U C114U — higher, -6.14
- G25C U32A G42C G45A G51C A111U — lower, -8.24
- G23A C62A — higher, -7.09
- A24G C56A G60U A83C U133A — higher, -2.54
- A26G C56G C97U C99A A111G — higher, -6.74
- A24G C34A G45U G57U C72U — higher, -5.61
- A26U A118C C123U — higher, -3.12
- A24G C86U — higher, -2.07
- A24G C86G — higher, -2.33
- G23A G36A — higher, -5.32
- G23A G36C — higher, -6.17
- A26U C62U A83C C104G A105C C114U U129A — within 0.2 log units, -7.45
- A26C C53A U112G — higher, -5.53
- A26U A37G C53A G120C C123A — higher, -2.54
- A26C C53U C86U U112A — higher, -5.9
- A26U C49U U54C G93C — higher, -5.34
- G23C A37G C40A G45A G57A C114A A118U — higher, -7.04
- G23A A46C C124A — higher, -5.92
- G25A C70U — higher, -5.76
- A24U U38G C114A U126G U132A — higher, -6.67
- A26C C28G G52U C88U G120A — higher, -5.8
- G25C C123G — higher, -5.25
- A26U A50U G57C — higher, -4.64
- A24G G48U G110A U132A — higher, -3.72
- A24C C49U C82U — higher, -5.77
- G23A C56G A95U U112A G127C — higher, -6.5
- G23U G35A A46U G47U G71A G117C U130A — higher, -6.34
- C22U U81A C88G — higher, -5.9
- A26G G47A C72U G93C G113A — higher, -6.9
- A24G C70A G110A A111U — higher, -5.11
- G25A U96A — higher, -5.41
- A26G G60U — higher, -2.17
- A26U A43G G48U C94G G110A — higher, -6.66
- G23A C70U — higher, -4.99
- G23A C70A — higher, -4.2
- G25C U32C G45A C49A A68U G69A A121U — higher, -7.08
- A26U C49G — higher, -3.57
- G25U A29G G45A C80U G110U — higher, -6.86
- C22U G113C — higher, -6.59
- A24G G47A G77U C86U — higher, -2.29
- G23A C115U — higher, -3.88
- G25A G47U A100U G110U U112A — higher, -6.61
- A26G G60C C82A — higher, -2.8
- G23C G110C — within 0.2 log units, -7.42
- G25A A74U A100C U109A U130A — higher, -6.43
- A26G U32C G60A C64U — higher, -5.28
- A26U A74U C88A G93A C101U — higher, -5.3
- G23A C124A — higher, -1.95
- A24G G42U G60U A66U C88G A121G — higher, -3.8
- A24G G61A A84U C85A — higher, -2.08
- G23U G48U C62A C64A C86U C99A G117U — within 0.2 log units, -7.32
- A24C C101G U112G — higher, -6.34
- A24G G77U G113U G122U C124A — higher, -6.49
- G25U A43C U78G A121G — higher, -5.96
- A26C G39C C56A A100G U112C — within 0.2 log units, -7.51
- A26C A46G G69U A74U — higher, -5.53
- G23A G113C — higher, -5.19
- A26U C31G A43G C89A A121U — within 0.2 log units, -7.24
- A24C U38G C89U G113U — higher, -6.49
- A24G G36C C49A G71U — higher, -3.84
- A24G U112A — higher, -0.197
- A26G G57A — higher, -2.54
- A26G A43U A50U C72A — higher, -5.38
- A24G C86G C99U C114G — lower, -7.76
- G23A G69A U78C G117C — higher, -6.47
- A26C G47C U112A — higher, -4.78
- G23A G69U — higher, -3.97
- A26U A46U C72U — higher, -3.97
- A24G G39A C70U A121G — higher, -0.648
- G23C C85G C97A G120C — lower, -7.88
- A26G A83C A90G A121C — higher, -0.49
- A26U A50U — higher, -4.75
- G25C A46U G61C C62A G113A C124A — lower, -8.51
- A26C G35A G61U C98G C124U — higher, -6.78
- A26C G69C G117C — higher, -6.27
- A24G A46C A111C U130G — higher, -3.43
- G23U C53U — higher, -5.67
- A24G G58U — higher, -1.2
- A24G G71U — higher, -1.76
- A26G C73A A100U — higher, -2.85
- G23A G69U C115U C123G — higher, -6.34
- A26U C40A G60C — higher, -6.14
- A24U C79U C114U G128A U131A — higher, -5.77
- A24G C28G G48U C64U — higher, -6.05
- A26G C88G C97U C123A — higher, -3.63
- A26G G44U G61A C99U G120U C124A — higher, -3.22
- G25C G71A C73A C89A G110A — higher, -6.79
- A24G G42U U59G C88G — higher, -5.92
- A24C C73G A83U C114G — higher, -6.1
- A26C G36U A41U G120U U132A — higher, -5.17
- A26G G69A — higher, -4.23
- A26G A66U A84U G110U G135U — higher, -5.61
- G23U G120C — higher, -3.8
- A24G C73U C88U C101U — higher, -2.26
- G25C C28A G48U G71U C73G G113U — higher, -6.43
- G23U C56U C70G A75U U78A C99A U112A — higher, -6.9
- A24C A26G — higher, -4.53
- G23U G44C C53G C94A U106G G113A — within 0.2 log units, -7.53
- G23A C49A — higher, -5.5
- A26U A50C U55G — higher, -4.51
- A26G U33G G61A A84C C98U — higher, -5.59
- A24G C62A C89G G113C C115A A118C — higher, -6.92
- G25U C104U — higher, -5.92
- A24U G110A — higher, -6.09
- A24G C64U — higher, -1.79
- G23U C70G A91C C98U — within 0.2 log units, -7.47
- A26G C124G — higher, 0.285
- G25C C56U A68U A83G C123A C124G — higher, -6.66
- A26G A74G G93U U106A U109C — higher, -3.92
- A24C G48C G69U — higher, -6.7
- A24G U78C — higher, -1.32
- G23C C28U C102G U112A C115A G120A — lower, -8.12
- A26C G57U — higher, -6.49
- A26U C64U — higher, -3.52
- A26G G71U — higher, -3.23
- A24U C123U — higher, -4.2
- A24U C123G — higher, -3.41
- G23A C49U C56A U116C — higher, -6.08
- A24G G120A — higher, -0.603
- A26G A105U — higher, -3.51
- G23U G69U — higher, -5.44
- G25C G36U U87A A108G G120A G135C — higher, -5.8
- A26U A41C A46U G61A C101U — higher, -4.43
- A24G A90G — higher, -1.65
- A26C U55G — higher, -5.98
- G25C G47U C64G U109A U133C — higher, -6.25
- A24G C49U G60U U129A — higher, -3.61
- A26U C34A G63C U112G G128C — lower, -7.83
- A24G C85A — higher, -3.6
- A24G C85G — higher, -2.32
- A26G C28U G35A U87G C124A — higher, -4.92
- C22U U38C U78C — higher, -4.58
- G25A C56U — higher, -5.12
- A24G C56U U125G — higher, -2.02
- A24U C88G — higher, -5.62
